Results from paper PMC12386367, “Importin α3 Is Tolerant to Nuclear Localization Signal Chirality” (International Journal of Molecular Sciences, 2025).
Read-outs that look alike come from different tables or passages of the source. Non-standard residues stand in square brackets, D forms with d.

Key:
[1] = biological target: L-NLS-PADI NLS (Homo sapiens) (UniProt Q9UM07); test: ITC; settings: cited from earlier work
[2] = biological target: L-NLS-NUPR1phospho NLS (Homo sapiens) (UniProt O60356); settings: cited from earlier work
[3] = biological target: L-NLS-PADI NLS (Homo sapiens) (UniProt Q9UM07); test: fluorescence; settings: cited from earlier work
[4] = biological target: L-NLS-NUPR1L NLS (Homo sapiens) (UniProt A6NF83); test: fluorescence; settings: cited from earlier work
Sequence of L-NLS-NUPR1L NLS (Homo sapiens) (A6NF83 60-80): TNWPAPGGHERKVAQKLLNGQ

[5] = biological target: L-NLS-NUPR1 NLS (Homo sapiens) (UniProt O60356); settings: cited from earlier work
[6] = biological target: L-NLS-NUPR1 (Homo sapiens) (UniProt O60356); test: ITC; settings: cited from earlier work
Sequence of L-NLS-NUPR1 (Homo sapiens) (O60356 54-74): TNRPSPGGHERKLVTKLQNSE

[7] = biological target: L-NLS-PADI (NLS2-PADI4) (Homo sapiens) (UniProt Q9UM07); test: ITC; settings: cited from earlier work
Sequence of L-NLS-PADI (NLS2-PADI4) (Homo sapiens) (Q9UM07 498-526): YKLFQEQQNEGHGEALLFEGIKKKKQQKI

[8] = biological target: L-NLS-NUPR1phospho (Homo sapiens) (UniProt O60356); test: ITC; settings: cited from earlier work
[9] = biological target: L-NLS-NUPR1L (Homo sapiens) (UniProt A6NF83); test: fluorescence; settings: cited from earlier work
Sequence of L-NLS-NUPR1L (Homo sapiens) (A6NF83 51-74): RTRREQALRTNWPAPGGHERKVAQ

[10] = biological target: L-NLS-PADI (NLS2-PADI4) (Homo sapiens) (UniProt Q9UM07); test: fluorescence; settings: cited from earlier work
[11] = biological target: L-NLS-NUPR1L NLS (Homo sapiens) (UniProt A6NF83); test: ITC; settings: cited from earlier work
[12] = biological target: L-NLS-NUPR1 NLS (Homo sapiens) (UniProt O60356); settings: cited from earlier work; remark: listed apart in the source
[13] = biological target: L-NLS-NUPR1phospho NLS (Homo sapiens) (UniProt O60356); settings: cited from earlier work; remark: listed apart in the source
[14] = biological target: L-NLS-NUPR1L (Homo sapiens) (UniProt A6NF83); test: ITC; settings: cited from earlier work
[15] = biological target: T1, Human importin α3 isoform (residues 1–521) (human, UniProt O00629 1-521); test: other fluorescence titration; intrinsic fluorescence, excitation at 280 or 295 nm; Impα3 or ∆Impα3 fixed at 3 μM (protomer units), peptide 0–35 μM; 50 mM Tris pH 8.0; 25 °C; settings: both partners purified
T1 construct: human importin α3 (Impα3, KPNA4), residues 1-521, intact protein with the N-terminal IBB domain; The materials list Ni2+-resin, ampicillin and IPTG, so expression in E. coli is surmised; also called Impα3; KPNA4
T1 sequence (looked up): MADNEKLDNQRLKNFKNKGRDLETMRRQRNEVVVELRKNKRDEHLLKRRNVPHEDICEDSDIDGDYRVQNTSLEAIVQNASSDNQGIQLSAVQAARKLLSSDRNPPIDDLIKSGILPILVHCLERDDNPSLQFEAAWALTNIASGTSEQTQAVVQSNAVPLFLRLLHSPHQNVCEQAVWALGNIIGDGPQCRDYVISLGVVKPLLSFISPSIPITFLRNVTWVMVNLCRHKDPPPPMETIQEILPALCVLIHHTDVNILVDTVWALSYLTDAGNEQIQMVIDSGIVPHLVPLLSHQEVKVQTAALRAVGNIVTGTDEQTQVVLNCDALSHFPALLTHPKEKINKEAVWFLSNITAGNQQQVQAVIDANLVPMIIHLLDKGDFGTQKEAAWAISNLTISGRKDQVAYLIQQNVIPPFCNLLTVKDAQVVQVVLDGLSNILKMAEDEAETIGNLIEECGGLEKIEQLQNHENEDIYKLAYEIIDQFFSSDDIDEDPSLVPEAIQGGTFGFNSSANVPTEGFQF

[16] = biological target: T1, Human importin α3 isoform (residues …); test: BLI; His-tagged Impα3 or ∆Impα3 immobilised on His-tag biosensors at 0.25 μM; peptides 1 to 10 μM; BLItz system, manufacturer's 10x kinetics buffer; 25 °C; kon and koff from pseudo-first-order plots; apparent Kd = koff/kon, two-state process assumed; settings: both partners purified
[17] = biological target: T2, IBB-depleted species of Impα3 (residues 64–521 of the intact protein) (human, UniProt O00629 64-521); test: as above; settings: both partners purified
T2 construct: PDB 5XZX was used only as the model of ∆Impα3 for docking; its limits may differ from 64-521; also called ΔImpα3; truncated importin species
T2 sequence (looked up): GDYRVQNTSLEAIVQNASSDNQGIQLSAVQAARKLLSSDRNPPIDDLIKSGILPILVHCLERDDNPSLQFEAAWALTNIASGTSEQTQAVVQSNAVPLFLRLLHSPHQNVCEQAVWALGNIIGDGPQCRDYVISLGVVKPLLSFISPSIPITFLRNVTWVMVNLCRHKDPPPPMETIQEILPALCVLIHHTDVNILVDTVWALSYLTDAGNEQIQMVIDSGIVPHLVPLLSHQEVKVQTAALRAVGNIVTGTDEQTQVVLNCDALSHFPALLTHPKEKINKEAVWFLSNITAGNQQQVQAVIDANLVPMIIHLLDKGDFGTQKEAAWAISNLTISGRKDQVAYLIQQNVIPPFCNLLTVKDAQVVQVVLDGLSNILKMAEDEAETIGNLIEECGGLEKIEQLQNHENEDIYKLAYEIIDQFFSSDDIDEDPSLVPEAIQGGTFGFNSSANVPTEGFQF

[18] = biological target: T2, IBB-depleted species of Impα3 (residues …); test: other fluorescence titration; intrinsic fluorescence, excitation at 280 or 295 nm; Impα3 or ∆Impα3 fixed at 3 μM (protomer units), peptide 0–35 μM; 50 mM Tris pH 8.0; 25 °C; settings: both partners purified
[19] = biological target: T1, Human importin α3 isoform (residues …); test: ITC; importin species (15 µM in protomer units) in the cell, D-NLS peptide (150–200 µM) in the syringe; Tris buffer 50 mM, pH 8.0; 25 °C; single set of binding sites; settings: both partners purified
[20] = biological target: T2, IBB-depleted species of Impα3 (residues …); test: as above; settings: both partners purified
[21] = biological target: T2, IBB-depleted species of Impα3 (residues …); test: as above; settings: both partners purified; remark: listed apart in the source
[22] = biological target: T1, Human importin α3 isoform (residues …); test: as above; settings: both partners purified; remark: listed apart in the source

Molecule | Kd [1] [µM] | Kd [3] [µM] | Kd [6] [µM] | Kd [7] [µM] | Kd [8] [µM] | Kd [10] [µM] | Kd [16] [µM] | koff [16] [s⁻¹] | kon [16] [M⁻¹ s⁻¹] | Kd [17] [µM] | koff [17] [s⁻¹] | kon [17] [M⁻¹ s⁻¹] | other results
Importin α3 (from UniProt O00629) | 23 | 4 | – | – | – | – | – | – | – | – | – | – | Kd [2]: 27 µM; Kd [4]: 3 µM; Kd [5]: 1.7 µM
importin α3 (Impα3) 1-521 (from UniProt O00629) | – | – | 1.7 | 23 | 27 | 4 | – | – | – | – | – | – | Kd [9]: 3 µM
∆Importin α3 IBB-deleted (from UniProt O00629) | 4.37 | 4 | – | – | – | – | – | – | – | – | – | – | Kd [11]: 5.5 µM; Kd [12]: 0.95 µM; Kd [13]: 29 µM
∆Impα3 64-521 (from UniProt O00629) | – | – | 0.95 | 4.37 | 29 | 4 | – | – | – | – | – | – | Kd [14]: 5.5 µM
Ac-[dK][dL][dF][dQ][dE][dQ][dQ][dN][dE]G[dH]G[dE][dA][dL][dL][dF][dE]G[dI][dK][dK][dK][dK][dQ][dQ][dK][dI]-NH2 (SMILES CC[C@@H](C)[C@@H](NC(=O)[C@@H](CCCCN)NC(=O)[C@@H](CCC(N)=O)NC(=O)[C@@H](CCC(N)=O)NC(=O)[C@@H](CCCCN)NC(=O)[C@@H](CCCCN)NC(=O)[C@@H](CCCCN)NC(=O)[C@@H](CCCCN)NC(=O)[C@H](NC(=O)CNC(=O)[C@@H](CCC(=O)O)NC(=O)[C@@H](Cc1ccccc1)NC(=O)[C@@H](CC(C)C)NC(=O)[C@@H](CC(C)C)NC(=O)[C@@H](C)NC(=O)[C@@H](CCC(=O)O)NC(=O)CNC(=O)[C@@H](Cc1c[nH]cn1)NC(=O)CNC(=O)[C@@H](CCC(=O)O)NC(=O)[C@@H](CC(N)=O)NC(=O)[C@@H](CCC(N)=O)NC(=O)[C@@H](CCC(N)=O)NC(=O)[C@@H](CCC(=O)O)NC(=O)[C@@H](CCC(N)=O)NC(=O)[C@@H](Cc1ccccc1)NC(=O)[C@@H](CC(C)C)NC(=O)[C@@H](CCCCN)NC(C)=O)[C@H](C)CC)C(N)=O, second predicted (non-canonical) NLS region of PADI4 (protein arginine deiminase 4), residues 499-526 of the intact protein, made of D-amino acids; Mirror-image (all-D) peptide; also called D-NLS-PADI; D-form of NLS2-PADI4; source: synthetic peptide (Genscript, purity higher than 95%)) [D-enantiomeric, isolated, non-canonical NLS of PADI4] | – | – | – | – | – | – | 15 | 0.6 | 45000 | 6 | 0.37 | 60000 | Kd [15]: 12 ± 5 µM; Kd [18]: 16 ± 11 µM
Ac-[dR][dT][dR][dR][dE][dQ][dA][dL][dR][dT][dN][dW][dP][dA][dP]GG[dH][dE][dR][dK][dV][dA][dQ]-NH2 (SMILES CC(=O)N[C@H](CCCNC(=N)N)C(=O)N[C@@H](C(=O)N[C@H](CCCNC(=N)N)C(=O)N[C@H](CCCNC(=N)N)C(=O)N[C@H](CCC(=O)O)C(=O)N[C@H](CCC(N)=O)C(=O)N[C@H](C)C(=O)N[C@H](CC(C)C)C(=O)N[C@H](CCCNC(=N)N)C(=O)N[C@@H](C(=O)N[C@H](CC(N)=O)C(=O)N[C@H](Cc1c[nH]c2ccccc12)C(=O)N1CCC[C@@H]1C(=O)N[C@H](C)C(=O)N1CCC[C@@H]1C(=O)NCC(=O)NCC(=O)N[C@H](Cc1c[nH]cn1)C(=O)N[C@H](CCC(=O)O)C(=O)N[C@H](CCCNC(=N)N)C(=O)N[C@H](CCCCN)C(=O)N[C@@H](C(=O)N[C@H](C)C(=O)N[C@H](CCC(N)=O)C(N)=O)C(C)C)[C@H](C)O)[C@H](C)O, NLS region of NUPR1L (paralogue of NUPR1), residues 51-74 of the intact protein, made of D-amino acids; also called D-NLS-NUPR1L; source: synthetic peptide (Genscript, purity higher than 95%)) [D-enantiomeric, isolated NLS region of NUPR1L (residues 51–74 of the intact protein)] | – | – | – | – | – | – | 1 | 0.069 | 68000 | 0.7 | 0.038 | 51200 | dH [19]: -2.5 ± 0.2 kcal/mol; dH [20]: -4.5 ± 0.7 kcal/mol; Kd [21]: 5 ± 1 µM; Kd [22]: 2.7 ± 0.6 µM
